Biological target: microtubules in LLCPK cells (pig (endogenous in LLCPK)) (UniProt P02550)
Experiment: FRAP; living LLCPK cells expressing GFP-tau, 37°C; fluorescence recovery integrated along line scans on single photobleached microtubules; half time from a first-order rate constant (t1/2 = ln2/k)

UniProt P02550, sequence (P02550 whole entry, chain 1 of 2): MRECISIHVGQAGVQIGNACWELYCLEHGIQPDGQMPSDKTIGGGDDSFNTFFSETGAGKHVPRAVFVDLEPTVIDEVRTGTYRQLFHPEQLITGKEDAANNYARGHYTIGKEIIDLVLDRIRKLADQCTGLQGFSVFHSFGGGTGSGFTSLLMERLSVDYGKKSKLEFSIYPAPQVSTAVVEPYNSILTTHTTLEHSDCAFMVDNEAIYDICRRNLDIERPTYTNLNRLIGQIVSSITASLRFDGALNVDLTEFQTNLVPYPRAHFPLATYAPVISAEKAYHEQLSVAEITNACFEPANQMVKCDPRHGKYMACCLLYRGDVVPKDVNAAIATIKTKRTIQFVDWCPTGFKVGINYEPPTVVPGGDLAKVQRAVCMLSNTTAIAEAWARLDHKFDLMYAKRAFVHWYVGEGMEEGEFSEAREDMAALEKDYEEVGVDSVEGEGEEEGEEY
UniProt P02550, sequence (Q767L7 whole entry, chain 2 of 2, further chain): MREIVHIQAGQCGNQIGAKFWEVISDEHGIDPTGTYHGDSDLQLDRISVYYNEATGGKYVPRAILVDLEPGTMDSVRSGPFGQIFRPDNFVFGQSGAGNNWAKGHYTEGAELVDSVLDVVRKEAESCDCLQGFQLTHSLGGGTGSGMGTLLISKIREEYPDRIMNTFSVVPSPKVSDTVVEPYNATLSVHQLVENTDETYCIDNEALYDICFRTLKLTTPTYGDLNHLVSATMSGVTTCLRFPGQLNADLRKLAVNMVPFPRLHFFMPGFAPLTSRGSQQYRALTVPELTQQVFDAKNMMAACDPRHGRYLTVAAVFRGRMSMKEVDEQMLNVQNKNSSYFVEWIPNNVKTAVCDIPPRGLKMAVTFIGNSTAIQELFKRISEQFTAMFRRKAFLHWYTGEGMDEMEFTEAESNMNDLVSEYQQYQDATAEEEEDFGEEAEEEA

Substance: GFP-tau (isoform with three microtubule-binding repeats) (natural protein)
- half time of fluorescence recovery on microtubules: 6.8 s
